In series [1] the target is CD3ζL19A-GFP (L19A murine CD3ζ-GFP fusion protein), transgenic mouse thymocytes (mouse). The series can be described thus: immunoblot of whole lysates.
Series [2] deals with the molecule itself. The series can be described thus: immunoblot of whole lysates. On the technique in general: In western blotting, separated proteins are transferred to a membrane and probed.

On to “CD3ζL19A-GFP (L19A murine CD3ζ-GFP fusion protein), transgenic mouse thymocytes (natural protein)”, for which, in series [1], the stoichiometry N (in general, a count of units in the complex or per binding partner) was determined as 2.

B1: CD3ζWT-GFP (wild-type murine CD3ζ-GFP fusion protein), transgenic mouse thymocytes (natural protein, UniProt P24161-1 22-164, looked up)
chain: QSFGLLDPKLCYLLDGILFIYGVIITALYLRAKFSRSAETAANLQDPNQLYNELNLGRREEYDVLEKKRARDPEMGGKQQRRRNPQEGVYNALQKDKMAEAYSEIGTKGERRRGKGHDGLYQGLSTATKDTYDALHMQTLAPR
In the case of B1, the “stoichiometry N” value in series [2] was determined as 2.

For the origin of these results see paper PMC9295770 (Proceedings of the National Academy of Sciences of the …, 2022).
